Results on one protein are retold here after PMC3787022, “Small Angle X-Ray Scattering Studies of Mitochondrial Glutaminase C Reveal Extended Flexible Regions, and Link Oligomeric State with Enzyme Activity” (PLoS ONE, 2013).

Data set [1] deals with the molecule itself. As to the kind of experiment: SEC-MALS; phosphate screen, K2HPO4 0, 25, 50 and 100 mM; protein 5 uM in the peak (injected 70 uM); WTC-030S5 column, 20 mM Tris-HCl pH 8.5, 500 mM NaCl, 23°C.
For a further data set, the target named is D3Z7P3. As to the kind of experiment: SAXS; phosphate (Pi) titration 0-100 mM, microfluidic mixing chip, 36 sec mixing time; GACwt constant at 30.7 uM, GACΔC constant at 33.8 uM; 20 mM Tris-HCl, 500 mM NaCl, 0.5 mM TCEP, 1 mM sodium azide; analysed with OLIGOMER
The note with it: other: SAXS.

Data set [2] deals with the molecule itself. The data set is described as follows: SEC-MALS; protein concentration screen 1.4-9.7 uM, no K2HPO4; WTC-030S5 column, 20 mM Tris-HCl pH 8.5, 500 mM NaCl, 23°C. (In general: In gel filtration, larger molecules generally elute earlier.)

B1: Glutaminase C wildtype construct (mouse GAC, residues 73-603) (enzyme, UniProt D3Z7P3-2 73-603, looked up)
chain: SSSPSEILQELGKGGTPPQQQQQQQQQPGASPPAAPGPKDSPGETDAFGNSEGKEMVAAGDNKIKQGLLPSLEDLLFYTIAEGQEKIPVHKFITALKSTGLRTSDPRLKECMDMLRLTLQTTSDGVMLDKDLFKKCVQSNIVLLTQAFRRKFVIPDFMSFTSHIDELYESAKKQSGGKVADYIPQLAKFSPDLWGVSVCTVDGQRHSIGDTKVPFCLQSCVKPLKYAIAVNDLGTEYVHRYVGKEPSGLRFNKLFLNEDDKPHNPMVNAGAIVVTSLIKQGVNNAEKFDYVMQFLNKMAGNEYVGFSNATFQSERESGDRNFAIGYYLKEKKCFPEGTDMVGILDFYFQLCSIEVTCESASVMAATLANGGFCPITGERVLSPEAVRNTLSLMHSCGMYDFSGQFAFHVGLPAKSGVAGGILLVVPNVMGMMCWSPPLDKMGNSVKGIHFCHDLVSLCNFHNYDNLRHFAKKLDPRREGGDQRHSFGPLDYESLQQELALKDTVWKKVSPESSDDTSTTVVYRMESLGERS
notes: GAC isoform of 603 residues; also called GACwt; GAC wildtype; source: expressed from a pET28a vector, purified (Ni-column, anion-exchange, gel filtration); not shown: histidine tag, N-terminal, cleaved
For the protein B1, the “stoichiometry N” value was about 4 in data set [1] and 4 in data set [2]. The “volume fraction of octamers at 80 mM Pi” value in the data set with D3Z7P3 is “a maximum of 38% at 80 mM Pi”.

A word on the stoichiometry N: it is the number of molecules, sites or subunits per partner or assembly.
